Reference: article PMC5411485

Legend:
[1] = test system: ScNsrR D8A, [4Fe-4S] (Streptomyces coelicolor); experiment: EMSA; settings: EMSA: 10 mM Tris, 54 mM KCl, 0.3% glycerol, 1.32 mM glutathione, pH 7.2, on ice ~10 min; 5% PAGE in 1x TBE
[2] = test system: ScNsrR D8C, [4Fe-4S] (Streptomyces coelicolor); experiment: EMSA; settings: EMSA: 10 mM Tris, 54 mM KCl, 0.3% glycerol, 1.32 mM glutathione, pH 7.2, on ice ~10 min; 5% PAGE in 1x TBE

## hmpA1 promoter probe
[1]
  K half ([4Fe-4S] protein:DNA ratio): > 20
[2]
  K half ([4Fe-4S] protein:DNA ratio): 20
